# T1: ZBTB48 ZnF10-11-C (Homo sapiens, UniProt P10074 548-620)
# T1 sequence: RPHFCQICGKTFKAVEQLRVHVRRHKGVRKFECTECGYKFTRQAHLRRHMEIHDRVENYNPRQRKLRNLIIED
# B1: CIITA e.2 crystal duplex (dsDNA)
# DNA 1: CACAAGTGAGGGATCA
# DNA 2: GTGATCCCTCACTTGT
# Biological target: T1, ZBTB48 ZnF10-11-C
# Assay: crystal structure
binder,measurement,value
B1,binding result,binds

# — doi:10.1101/2023.07.25.550481
